The values below come from patent US20240270846A1 (published 2024).

Residue numbers refer to the chain shown, from its start. Numbers in names are those of the source.

First the molecules themselves.
B1: CE115HA000 H35A one-arm antibody (antibody, human IgG1, kappa, L234A L235A, N297A, name in Kabat numbering)
heavy: QVQLVESGGGVVQPGRSLRLSCAASGFTFSNAWMAWVRQAPGKGLEWVAQIKAKSNNYATYYAESVKGRFTISRDDSKNSLYLQMNSLKTEDTAVYYCRYVHYGAYYGVDAWGQGTTVTVSSASTKGPSVFPLAPSSKSTSGGTAALGCLVKDYFPEPVTVSWNSGALTSGVHTFPAVLQSSGLYSLSSVVTVPSSSLGTQTYICNVNHKPSNTKVDKKVEPKSCDKTHTCPPCPAPEAAGGPSVFLFPPKPKDTLMISRTPEVTCVVVDVSHEDPEVKFNWYVDGVEVHNAKTKPREEQYASTYRVVSVLTVLHQDWLNGKEYKCKVSNKALPAPIEKTISKAKGQPREPQVYTLPPSRCELTKNQVSLSCAVKGFYPSDIAVEWESNGQPENNYKTTPPVLDSDGSFFLVSKLTVDKSRWQQGNVFSCSVMHEALHNHYTQKSLSLSPDYKDDDDK
chain: EPKSSDKTHTCPPCPAPELLGGPSVFLFPPKPKDTLMISRTPEVTCVVVDVSHEDPEVKFNWYVDGVEVHNAKTKPREEQYNSTYRVVSVLTVLHQDWLNGKEYKCKVSNKALPAPIEKTISKAKGQPREPQVCTLPPSRDELTKNQVSLWCLVKGFYPSDIAVEWESNGQPENNYKTTPPVLDSDGSFFLYSKLTVDKSRWQQGNVFSCSVMHEALHNRYTQKSLSLSP
light: DIVMTQSPLSLPVTPGEPASISCRSSQSLVHSNRNTYLHWYQQKPGQAPRLLIYKVSNRFSGVPDRFSGSGSGTDFTLKISRVEAEDVGVYYCGQGTQVPYTFGQGTKLEIKRTVAAPSVFIFPPSDEQLKSGTASVVCLLNNFYPREAKVQWKVDNALQSGNSQESVTEQDSKDSTYSLSSTLTLSKADYEKHKVYACEVTHQGLSSPVTKSFNRGEC
notes: one-arm antibody
B2: CE115HA000 D72A one-arm antibody (antibody, human IgG1, kappa, L234A L235A, N297A, name in Kabat numbering)
heavy: B1 heavy with A35H, D75A
chain: B1 chain
light: B1 light
notes: one-arm antibody
B3: CE115HA000 F29V one-arm antibody (antibody, human IgG1, kappa, L234A L235A, N297A, name in Kabat numbering)
heavy: B1 heavy with F29V, A35H
chain: B1 chain
light: B1 light
notes: one-arm antibody
B4: CE115HA000 D73K one-arm antibody (antibody, human IgG1, kappa, L234A L235A, N297A, name in Kabat numbering)
heavy: B1 heavy with A35H, D76K
chain: B1 chain
light: B1 light
notes: one-arm antibody
B5: CE115HA000 A56G one-arm antibody (antibody, human IgG1, kappa, L234A L235A, N297A, name in Kabat numbering)
heavy: B1 heavy with A35H, A59G
chain: B1 chain
light: B1 light
notes: one-arm antibody
B6: CE115HA000 A52aV one-arm antibody (antibody, human IgG1, kappa, L234A L235A, N297A, name in Kabat numbering)
heavy: B1 heavy with A35H, A53V
chain: B1 chain
light: B1 light
notes: one-arm antibody
B7: CE115HA000 D73A one-arm antibody (antibody, human IgG1, kappa, L234A L235A, N297A, name in Kabat numbering)
heavy: B1 heavy with A35H, D76A
chain: B1 chain
light: B1 light
notes: one-arm antibody
B8: CE115HA000 A52aG one-arm antibody (antibody, human IgG1, kappa, L234A L235A, N297A, name in Kabat numbering)
heavy: B1 heavy with A35H, A53G
chain: B1 chain
light: B1 light
notes: one-arm antibody
B9: CE115HA000 E61A one-arm antibody (antibody, human IgG1, kappa, L234A L235A, N297A, name in Kabat numbering)
heavy: B1 heavy with A35H, E64A
chain: B1 chain
light: B1 light
notes: one-arm antibody
B10: CE115HA000 A52aD one-arm antibody (antibody, human IgG1, kappa, L234A L235A, N297A, name in Kabat numbering)
heavy: B1 heavy with A35H, A53D
chain: B1 chain
light: B1 light
notes: one-arm antibody
B11: CE115HA000 A52aY one-arm antibody (antibody, human IgG1, kappa, L234A L235A, N297A, name in Kabat numbering)
heavy: B1 heavy with A35H, A53Y
chain: B1 chain
light: B1 light
notes: one-arm antibody
B12: CE115HA000 E61D one-arm antibody (antibody, human IgG1, kappa, L234A L235A, N297A, name in Kabat numbering)
heavy: B1 heavy with A35H, E64D
chain: B1 chain
light: B1 light
notes: one-arm antibody
B13: CE115HA000 A32Y one-arm antibody (antibody, human IgG1, kappa, L234A L235A, N297A, name in Kabat numbering)
heavy: B1 heavy with A32Y, A35H
chain: B1 chain
light: B1 light
notes: one-arm antibody
B14: CE115HA000 D73E one-arm antibody (antibody, human IgG1, kappa, L234A L235A, N297A, name in Kabat numbering)
heavy: B1 heavy with A35H, D76E
chain: B1 chain
light: B1 light
notes: one-arm antibody
B15: CE115HA000 A60D one-arm antibody (antibody, human IgG1, kappa, L234A L235A, N297A, name in Kabat numbering)
heavy: B1 heavy with A35H, A63D
chain: B1 chain
light: B1 light
notes: one-arm antibody
B16: CE115HA000 H35I one-arm antibody (antibody, human IgG1, kappa, L234A L235A, N297A, name in Kabat numbering)
heavy: B1 heavy with A35I
chain: B1 chain
light: B1 light
notes: one-arm antibody
B17: CE115HA000 A52aP one-arm antibody (antibody, human IgG1, kappa, L234A L235A, N297A, name in Kabat numbering)
heavy: B1 heavy with A35H, A53P
chain: B1 chain
light: B1 light
notes: one-arm antibody
B18: CE115HA000 D73G one-arm antibody (antibody, human IgG1, kappa, L234A L235A, N297A, name in Kabat numbering)
heavy: B1 heavy with A35H, D76G
chain: B1 chain
light: B1 light
notes: one-arm antibody
B19: CE115HA000 H35E one-arm antibody (antibody, human IgG1, kappa, L234A L235A, N297A, name in Kabat numbering)
heavy: B1 heavy with A35E
chain: B1 chain
light: B1 light
notes: one-arm antibody
B20: CE115HA000 G65E one-arm antibody (antibody, human IgG1, kappa, L234A L235A, N297A, name in Kabat numbering)
heavy: B1 heavy with A35H, G68E
chain: B1 chain
light: B1 light
notes: one-arm antibody
B21: CE115HA000 G65D one-arm antibody (antibody, human IgG1, kappa, L234A L235A, N297A, name in Kabat numbering)
heavy: B1 heavy with A35H, G68D
chain: B1 chain
light: B1 light
notes: one-arm antibody
B22: CE115HA000 A56D one-arm antibody (antibody, human IgG1, kappa, L234A L235A, N297A, name in Kabat numbering)
heavy: B1 heavy with A35H, A59D
chain: B1 chain
light: B1 light
notes: one-arm antibody
B23: CE115HA000 H35G one-arm antibody (antibody, human IgG1, kappa, L234A L235A, N297A, name in Kabat numbering)
heavy: B1 heavy with A35G
chain: B1 chain
light: B1 light
notes: one-arm antibody
B24: CE115HA000 A60E one-arm antibody (antibody, human IgG1, kappa, L234A L235A, N297A, name in Kabat numbering)
heavy: B1 heavy with A35H, A63E
chain: B1 chain
light: B1 light
notes: one-arm antibody
B25: CE115HA000 D72E one-arm antibody (antibody, human IgG1, kappa, L234A L235A, N297A, name in Kabat numbering)
heavy: B1 heavy with A35H, D75E
chain: B1 chain
light: B1 light
notes: one-arm antibody
B26: CE115HA000 H35F one-arm antibody (antibody, human IgG1, kappa, L234A L235A, N297A, name in Kabat numbering)
heavy: B1 heavy with A35F
chain: B1 chain
light: B1 light
notes: one-arm antibody
B27: CE115HA000 A52aS one-arm antibody (antibody, human IgG1, kappa, L234A L235A, N297A, name in Kabat numbering)
heavy: B1 heavy with A35H, A53S
chain: B1 chain
light: B1 light
notes: one-arm antibody
B28: CE115HA000 H35D one-arm antibody (antibody, human IgG1, kappa, L234A L235A, N297A, name in Kabat numbering)
heavy: B1 heavy with A35D
chain: B1 chain
light: B1 light
notes: one-arm antibody
B29: CE115HA000 A56K one-arm antibody (antibody, human IgG1, kappa, L234A L235A, N297A, name in Kabat numbering)
heavy: B1 heavy with A35H, A59K
chain: B1 chain
light: B1 light
notes: one-arm antibody
B30: CE115HA000 A52aE one-arm antibody (antibody, human IgG1, kappa, L234A L235A, N297A, name in Kabat numbering)
heavy: B1 heavy with A35H, A53E
chain: B1 chain
light: B1 light
notes: one-arm antibody
B31: GLS3000 Y32A (Kabat) L chain altered form, one-arm antibody with CE115HA000 (antibody, human IgG1, kappa, L234A L235A, N297A, name in Kabat numbering)
heavy: B1 heavy with A35H
chain: B1 chain
light: B1 light with Y37A
notes: one-arm antibody

For the first test, the target named is T1, CD3 epsilon homodimer protein (UniProt P07766 23-126).
T1 construct: also called CD3 (CD3 epsilon)
Nature of the test: SPR Biacore T200, antibody over immobilised CD3e homodimer.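 Also: CD3 epsilon homodimer amine-coupled on a CM4 chip, run at 25 °C in HBS-EP+, Z = bound amount of each single-residue H chain variant over that of the parent antibody.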
T1 sequence (P07766 23-126): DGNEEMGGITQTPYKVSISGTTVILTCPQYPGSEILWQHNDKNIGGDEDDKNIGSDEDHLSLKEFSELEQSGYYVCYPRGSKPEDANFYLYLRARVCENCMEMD
On to B1, for which the “ratio of amounts bound (Z=Y/X vs CE115HA000)” value (from here on “ratio of amounts bound”) is 0.17.

In the case of B2, the “ratio of amounts bound” value amounted to 1.41.

Turning to B3, the “ratio of amounts bound” value amounted to 0.36.

On to B4, for which the “ratio of amounts bound” value was 0.87.

Regarding B5, the “ratio of amounts bound” value worked out at 0.61.

B6: the “ratio of amounts bound” value turned out to be 0.52.

As for B7, the “ratio of amounts bound” value amounted to 0.83.

For the molecule B8, the “ratio of amounts bound” value came out at 0.81.

As to B9, the “ratio of amounts bound” value worked out at 1.09.

For the molecule B10, the “ratio of amounts bound” value was 1.34.

In the case of B11, the “ratio of amounts bound” value was found to be 0.31.

On to B12, for which the “ratio of amounts bound” value was found to be 0.91.

As to B13, the “ratio of amounts bound” value amounted to 0.33.

Take B14: the “ratio of amounts bound” value turned out to be 0.73.

As for B15, the “ratio of amounts bound” value came out at 0.99.

Regarding B16, the “ratio of amounts bound” value turned out to be 0.12.

Take B17: the “ratio of amounts bound” value turned out to be 0.15.

B18: the “ratio of amounts bound” value was 1.07.

For B19, the “ratio of amounts bound” value was found to be 0.19.

As for B20, the “ratio of amounts bound” value was found to be 0.78.

Turning to B21, the “ratio of amounts bound” value turned out to be 0.76.

As for B22, the “ratio of amounts bound” value came out at 0.51.

For the molecule B23, the “ratio of amounts bound” value is 0.22.

As to B24, the “ratio of amounts bound” value is 0.94.

On to B25, for which the “ratio of amounts bound” value came to 1.05.

Take B26: the “ratio of amounts bound” value worked out at 0.21.

For the molecule B27, the “ratio of amounts bound” value amounted to 1.05.

Turning to B28, the “ratio of amounts bound” value amounted to 0.2.

Consider B29, for which the “ratio of amounts bound” value was found to be 1.35.

On to B30, for which the “ratio of amounts bound” value worked out at 0.57.

A further test addresses T2, CD3 epsilon homodimer protein (UniProt P07766 23-126).
T2 construct: construct not described; homodimer as printed; also called CD3 (CD3 epsilon)
Put plainly: SPR Biacore T200, CD3 epsilon homodimer immobilized; vs unaltered GLS3000.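 Also: antibody variants flowed as analyte over CD3 epsilon homodimer amine-coupled to a CM4 chip, at 25 °C in HBS-EP+ running buffer, fitted with Biacore T200 Evaluation Software.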 In general terms: In SPR one partner is held on a chip, and binding of the other changes the refractive index at the surface.
T2 sequence (P07766 23-126): as above
For B31, the “KD ratio to GLS3000 (Affinity up)” value amounted to 66.8.
